Target: anti-EGFR activatable antibodies comprising substrates 2001, 2006-2010 and 2012

B1: human matriptase (protein)
chain: VVGGTDADEGEWPWQVSLHALGQGHICGASLISPNWLVSAAHCYIDDRGFRYSDPTQWTAFLGLHDQSQRSAPGVQERRLKRIISHPFFNDFTFDYDIALLELEKPAEYSSMVRPICLPDASHVFPAGKAIWVTGWGHTQYGGTGALILQKGEIRVINQTTCENLLPQQITPRMMCVGFLSGGVDSCQGDSGGPLSSVEADGRIFQAGVVSWGDGCAQRNKPGVYTRLPLFRDWIKENTGV
kcat/Km: a range of kcat/Km values ranging from 6E+02 to 2E+04

Source: patent US20210355208
